According to US20240261333A1, “NOVEL TARGETS FOR ENHANCING ANTI-TUMOR IMMUNITY” (THE BROAD INSTITUTE, INC., priority 2021, published 2024):

T1: B3GNT2 (Homo sapiens, UniProt Q9NY97)
T1 construct: The respective ORFs of candidate genes [CD274 (NM_014143), MCL1 (NM_021960), JUNB (NM_002229), and B3GNT2 (NM_006577)] were synthesized; expressed in transfected cells; host or cells: A375 melanoma cells (lentiviral ORF overexpression)
T1 sequence (Q9NY97 1-397): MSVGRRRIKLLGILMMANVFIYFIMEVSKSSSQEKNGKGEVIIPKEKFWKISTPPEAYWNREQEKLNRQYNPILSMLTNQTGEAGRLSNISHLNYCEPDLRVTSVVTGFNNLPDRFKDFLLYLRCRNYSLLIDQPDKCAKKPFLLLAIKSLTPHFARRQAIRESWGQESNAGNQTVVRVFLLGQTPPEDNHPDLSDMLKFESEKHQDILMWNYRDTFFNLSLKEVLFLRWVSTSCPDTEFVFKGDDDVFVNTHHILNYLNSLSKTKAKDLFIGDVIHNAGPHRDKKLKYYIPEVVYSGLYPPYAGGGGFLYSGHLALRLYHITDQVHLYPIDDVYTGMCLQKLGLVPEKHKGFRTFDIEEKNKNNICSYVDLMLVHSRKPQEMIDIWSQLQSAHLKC

B1: SAMM50 (protein)
chain: MGTVHARSLEPLPSSGPDFGGLGEEAEFVEVEPEAKQEILENKDVVVQHVHFDGLGRTKDDIIICEIGDVFKAKNLIEVMRKSHEAREKLLRLGIFRQVDVLIDTCQGDDALPNGLDVTFEVTELRRLTGSYNTMVGNNEGSMVLGLKLPNLLGRAEKVTFQFSYGTKETSYGLSFFKPRPGNFERNFSVNLYKVTGQFPWSSLRETDRGMSAEYSFPIWKTSHTVKWEGVWRELGCLSRTASFAVRKESGHSLKSSLSHAMVIDSRNSSILPRRGALLKVNQELAGYTGGDVSFIKEDFELQLNKQLIFDSVFSASFWGGMLVPIGDKPSSIADRFYLGGPTSIRGFSMHSIGPQSEGDYLGGEAYWAGGLHLYTPLPFRPGQGGFGELFRTHFFLNAGNLCNLNYGEGPKAHIRKLAECIRWSYGAGIVLRLGNIARLELNYCVPMGVQTGDRICDGVQFGAGIRFL
B2: GGCT (protein)
chain: MANSGCKDVTGPDEESFLYFAYGSNLLTERIHLRNPSAAFFCVARLQDFKLDFGNSQGKTSQTWHGGIATIFQSPGDEVWGVVWKMNKSNLNSLDEQEGVKSGMYVVIEVKVATQEGKEITCRSYLMTNYESAPPSPQYKKIICMGAKENGLPLEYQEKLKAIEPNDYTGKVSEEIEDIIKKGETQTL
B3: DDX5 (protein)
chain: MSGYSSDRDRGRDRGFGAPRFGGSRAGPLSGKKFGNPGEKLVKKKWNLDELPKFEKNFYQEHPDLARRTAQEVETYRRSKEITVRGHNCPKPVLNFYEANFPANVMDVIARQNFTEPTAIQAQGWPVALSGLDMVGVAQTGSGKTLSYLLPAIVHINHQPFLERGDGPICLVLAPTRELAQQVQQVAAEYCRACRLKSTCIYGGAPKGPQIRDLERGVEICIATPGRLIDFLECGKTNLRRTTYLVLDEADRMLDMGFEPQIRKIVDQIRPDRQTLMWSATWPKEVRQLAEDFLKDYIHINIGALELSANHNILQIVDVCHDVEKDEKLIRLMEEIMSEKENKTIVFVETKRRCDELTRKMRRDGWPAMGIHGDKSQQERDWVLNEFKHGKAPILIATDVASRGLDVEDVKFVINYDYPNSSEDYIHRIGRTARSTKTGTAYTFFTPNNIKQVSDLISVLREANQAINPKLLQLVEDRGSGRSRGRGGMKDDRRDRYSAGKRGGFNTFRDRENYDRGYSSLLKRDFGAKTQNGVYSAANYTNGSFGSNFVSAGIQTSFRTGNPTGTYQNGYDSTQQYGSNVPNMHNGMNQQAYAYPATAAAPMIGYPMPTGYSQ
B4: UBAP2L (protein)
chain: MMTSVGTNRARGNWEQPQNQNQTQHKQRPQATAEQIRLAQMISDHNDADFEEKVKQLIDITGKNQDECVIALHDCNGDVNRAINVLLEGNPDTHSWEMVGKKKGVSGQKDGGQTESNEEGKENRDRDRDYSRRRGGPPRRGRGASRGREFRGQENGLDGTKSGGPSGRGTERGRRGRGRGRGGSGRRGGRFSAQGMGTFNPADYAEPANTDDNYGNSSGNTWNNTGHFEPDDGTSAWRTATEEWGTEDWNEDLSETKIFTASNVSSVPLPAENVTITAGQRIDLAVLLGKTPSTMENDSSNLDPSQAPSLAQPLVFSNSKQTAISQPASGNTFSHHSMVSMLGKGFGDVGEAKGGSTTGSQFLEQFKTAQALAQLAAQHSQSGSTTTSSWDMGSTTQSPSLVQYDLKNPSDSAVHSPFTKRQAFTPSSTMMEVFLQEKSPAVATSTAAPPPPSSPLPSKSTSAPQMSPGSSDNQSSSPQPAQQKLKQQKKKASLTSKIPALAVEMPGSADISGLNLQFGALQFGSEPVLSDYESTPTTSASSSQAPSSLYTSTASESSSTISSNQSQESGYQSGPIQSTTYTSQNNAQGPLYEQRSTQTRRYPSSISSSPQKDLTQAKNGFSSVQATQLQTTQSVEGATGSAVKSDSPSTSSIPPLNETVSAASLLTTTNQHSSSLGGLSHSEEIPNTTTTQHSSTLSTQQNTLSSSTSSGRTSTSTLLHTSVESEANLHSSSSTFSTTSSTVSAPPPVVSVSSSLNSGSSLGLSLGSNSTVTASTRSSVATTSGKAPPNLPPGVPPLLPNPYIMAPGLLHAYPPQVYGYDDLQMLQTRFPLDYYSIPFPTPTTPLTGRDGSLASNPYSGDLTKFGRGDASSPAPATTLAQPQQNQTQTHHTTQQTFLNPALPPGYSYTSLPYYTGVPGLPSTFQYGPAVFPVAPTSSKQHGVNVSVNASATPFQQPSGYGSHGYNTGVSVTSSNTGVPDISGSVYSKTQQSFEKQGFHSGTPAASFNLPSALGSGGPINPATAAAYPPAPFMHILTPHQQPHSQILHHHLQQDGQTGSGQRSQTSSIPQKPQTNKSAYNSYSWGAN
B5: FUBP3 (protein)
chain: AELVQGQSAPVGMKAEGFVDALHRVRQIAAKIDSIPHLNNSTPLVDPSVYGYGVQKRPLDDGVGNQLGALVHQRTVITEEFKVPDKMVGFIIGRGGEQISRIQAESGCKIQIASESSGIPERPCVLTGTPESIEQAKRLLGQIVDRCRNGPGFHNDIDSNSTIQEILIPASKVGLVIGRGGETIKQLQERTGVKMVMIQDGPLPTGADKPLRITGDAFKVQQAREMVLEIIREKDQADFRGVRGDFNSRMGGGSIEVSVPRFAVGIVIGRNGEMIKKIQNDAGVRIQFKPDDGISPERAAQVMGPPDRCQHAAHIISELILTAQERDGFGGLAAARGRGRGRGDWSVGAPGGVQEITYTVPADKCGLVIGKGGENIKSINQQSGAHVELQRNPPPNSDPNLRRFTIRGVPQQIEVARQLIDEKVGGTNLGAPGAFGQSPFSQPPAPPHQNTFPPRSSGCFPNMAAKVNGNPHSTPVSGPPAFLTQGWGSTYQAWQQPTQQVPSQQSQPQSSQPNYSKAWEDYYKKQSHAASAAPQASSPPDYTMAWAEYYRQQVAFYGQTLGQAQAHSQEQ
B6: NUFIP2 (protein)
chain: MEEKPGQPQPQHHHSHHHPHHHPQQQQQQPHHHHHYYFYNHSHNHHHHHHHQQPHQYLQHGAEGSPKAQPKPLKHEQKHTLQQHQETPKKKTGYGELNGNAGEREISLKNLSSDEATNPISRVLNGNQQVVDTSLKQTVKANTFGKAGIKTKNFIQKNSMDKKNGKSYENKSGENQSVDKSDTIPIPNGVVTNNSGYITNGYMGKGADNDGSGSESGYTTPKKRKARRNSAKGCENLNIVQDKIMQQETSVPTLKQGLETFKPDYSEQKGNRVDGSKPIWKYETGPGGTSRGKPAVGDMLRKSSDSKPGVSSKKFDDRPKGKHASAVASKEDSWTLFKPPPVFPVDNSSAKIVPKISYASKVKENLNKTIQNSSVSPTSSSSSSSSTGETQTQSSSRLSQVPMSALKSVTSANFSNGPVLAGTDGNVYPPGGQPLLTTAANTLTPISSGTDSVLQDMSLTSAAVEQIKTSLFIYPSNMQTMLLSTAQVDLPSQTDQQNLGDIFQNQWGLSFINEPSAGPETVTGKSSEHKVMEVTFQGEYPATLVSQGAEIIPSGTEHPVFPKAYELEKRTSPQVLGSILKSGTTSESGALSLEPSHIGDLQKADTSSQGALVFLSKDYEIESQNPLASPTNTLLGSAKEQRYQRGLERNDSWGSFDLRAAIVYHTKEMESIWNLQKQDPKRIITYNEAMDSPDQ

Target: T1, B3GNT2
Test: Co-IP of FLAG-tagged B3GNT2 followed by mass spectrometry
Format: cell-based
Parameters: C-term IgG / C-term flag: unit not given here
Conditions: Co-IP followed by mass spectrometry of B3GNT2; C-term tag, FLAG pull-down
Outline: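 Co-purifying proteins were identified by fractionated nano-LC–MS/MS on an Orbitrap Elite, run data-dependent. Beforehand, lysates in 1% Triton X-100/HEPES buffer were incubated overnight at 4° C with anti-FLAG or […] and pulled down on Protein A/G magnetic beads for 4 h. Duplicate biological replicates.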

Molecule | C-term flag
B1 | 0
B2 | 0
B3 | 22
B4 | 19
B5 | 9
B6 | 5

Same assay, conditions: Co-IP followed by mass spectrometry of B3GNT2; C-term tag, IgG pull-down

Molecule | C-term IgG
B1 | 0
B2 | 0
B3 | 16
B4 | 15
B5 | 7
B6 | 4

Same assay, conditions: Co-IP followed by mass spectrometry of B3GNT2; N-term tag, FLAG pull-down

Molecule | N-term FLAG
B1 | 3
B2 | 3
B3 | 16
B4 | 20
B5 | 8
B6 | 3

Same assay, conditions: Co-IP followed by mass spectrometry of B3GNT2; N-term tag, IgG pull-down

Molecule | N-term IgG
B1 | 0
B2 | 0
B3 | 18
B4 | 20
B5 | 8
B6 | 3
